61 sequences from the Immune Epitope Database (IEDB) can be followed below.

pKd: −log10 of the molar value.

For assay [1], the target named is HLA-B*44:03. As to the kind of experiment: IEDB peptide-MHC binding, purified MHC/competitive/radioactivity; filed as Kd, often an IC50 or EC50 that approximates it; ≥ and ≤ were set here for values at or beyond the usual limits of such assays.
The target in assay [2] is HLA-A*32:01. The assay is described as above.
Assay [3] deals with HLA-B*15:01. The assay is described as above.
The target of assay [4] is HLA-A*11:01. The description is as above. The note with it: source organism: Vaccinia virus WR.
The target of assay [5] is HLA-A*03:01. The description is as above. The note with it: source organism: Vaccinia virus WR.
Assay [6] concerns the target HLA-A*31:01. The description is as above. The note with it: source organism: Vaccinia virus WR.
The target in assay [7] is HLA-A*33:01. The assay is described as above. The note with it: source organism: Vaccinia virus WR.
Assay [8] deals with HLA-A*68:01. The assay is described as above. The settings on record: source organism: Vaccinia virus WR.
Assay [9] deals with HLA-A*26:01. The assay is described as follows: IEDB peptide-MHC binding, purified MHC/direct/fluorescence; filed as Kd, often an IC50 or EC50 that approximates it; ≥ and ≤ were set here for values at or beyond the usual limits of such assays.
In assay [10] the target is HLA-B*58:01. Described as above. The note with it: source organism: Burkholderia lata.
Assay [11] concerns the target HLA-B*57:01. The description is as above.
Assay [12] has as its target HLA-B*35:01. As to the kind of experiment: IEDB peptide-MHC binding, purified MHC/competitive/radioactivity; filed as Kd, often an IC50 or EC50 that approximates it; ≥ and ≤ were set here for values at or beyond the usual limits of such assays.
The target of assay [13] is HLA-A*30:02. The assay is described as above.
For assay [14], the target named is HLA-A*01:01. Described as above.
Assay [15] addresses HLA-A*24:03. The assay is described as follows: IEDB peptide-MHC binding, purified MHC/direct/fluorescence; filed as Kd, often an IC50 or EC50 that approximates it; ≥ and ≤ were set here for values at or beyond the usual limits of such assays.
Assay [16] addresses HLA-A*26:01. The assay is described as follows: IEDB peptide-MHC binding, purified MHC/competitive/radioactivity; filed as Kd, often an IC50 or EC50 that approximates it; ≥ and ≤ were set here for values at or beyond the usual limits of such assays.
Assay [17] deals with HLA-A*11:01. As to the kind of experiment: IEDB peptide-MHC binding, purified MHC/direct/fluorescence; filed as Kd, often an IC50 or EC50 that approximates it; ≥ and ≤ were set here for values at or beyond the usual limits of such assays. The note with it: source organism: Homo sapiens.
Assay [18] deals with HLA-A*03:01. The description is as above. The settings on record: source organism: Homo sapiens.
Assay [19] concerns the target HLA-A*31:01. The description is as above. The settings on record: source organism: Homo sapiens.
For assay [20], the target named is HLA-A*69:01. The description is as above. The note with it: source organism: Homo sapiens.
The target in assay [21] is HLA-A*01:01. Described as above. The note with it: source organism: Homo sapiens.
Assay [22] addresses HLA-B*27:05. The assay is described as above. The note with it: source organism: Homo sapiens.
In assay [23] the target is HLA-B*53:01. As to the kind of experiment: IEDB peptide-MHC binding, purified MHC/competitive/radioactivity; filed as Kd, often an IC50 or EC50 that approximates it; ≥ and ≤ were set here for values at or beyond the usual limits of such assays.
Assay [24] addresses HLA-B*51:01. The description is as above.
Assay [25] addresses HLA-B*07:02. The description is as above.
For assay [26], the target named is HLA-B*54:01. Described as above.
Where [27] appears, read: source organism: Dengue virus 3 Martinique/1243/1999.
[28] abbreviates: source organism: Dengue virus 1 Brazil/97-11/1997.
Where [29] appears, read: source organism: Vaccinia virus Copenhagen.
[30] abbreviates: source organism: Dengue virus 4 Philippines/H241/1956.
Where [31] appears, read: source organism: Vaccinia virus WR.
The mark [32] stands for this setting: source organism: Dengue virus 4 Dominica/814669/1981.
[33] abbreviates: source organism: Dengue virus 2 Jamaica/1409/1983.
[34] abbreviates: source organism: SARS coronavirus Tor2.
The mark [35] stands for this setting: source organism: Mammarenavirus guanaritoense.
Setting [36] is: source organism: Triticum aestivum.
Where [37] appears, read: source organism: Dengue virus 2 16681-PDK53.
The mark [38] stands for this setting: source organism: Lassa virus Josiah.

AEWLWRTLGR: in assay [1] (setting [27]), the pKd is 6.50.

In the case of AMEELPDTI, the pKd in [2] (setting [28]) is at most 4.67.

Consider ATAGLHLGF, for which, in assay [2] (setting [29]), the pKd is 8.77.

As for AVHQVFGSVY, in assay [3] (setting [30]), the pKd was 8.96.

On to EEISTSLSF, for which the pKd in assay [3] (setting [31]) was 8.69.

EETNMITLLV: the pKd in [1] (setting [30]) was 6.21.

ELCGAFLFY: the pKd in [4] is 6.71; in assay [5], 6.81; in [6], 5.99; in [3] (setting [31]), 8.13; in [7] it was 4.87; in [8], 6.56.

For the sequence ELNNTQCHI, the pKd in assay [3] (setting [31]) is 5.91.

Sequence ETIDTIIDQ gave a pKd in assay [9] (source organism: Mammarenavirus lassaense) of 6.02.

Regarding ETLWSPWKL, the pKd is 5.85 in assay [10] and at most 4.70 in assay [11] (source organism: Burkholderia lata).

As for FSFMYIESI, in [3] (setting [31]), the pKd is 6.72.

Take FSQHNYRQGY: the negative-log Kd (pKd) is at most 4.34 in assay [12] (setting [30]), 5.90 in [13] (setting [30]), 6.87 in assay [3] (setting [30]) and 6.68 in assay [14] (setting [30]).

For the sequence GGPISQHNY, the pKd in [13] (setting [28]) was 6.33.

GWALGYLYF gave a pKd in [15] (source organism: Mycobacterium tuberculosis) of 7.61.

For HTTERGGKAY, the pKd in [16] (setting [30]) was 5.88; in assay [3] (setting [30]) it was 7.30; in assay [14] (setting [30]), 5.37.

In the case of HTTERGGRAY, the values for the pKd in assay [16] (setting [32]), in assay [3] (setting [32]) and in assay [14] (setting [32]) were 6.46, 6.66 and 6.84, respectively.

With IISSTPFAEY, the pKd in assay [13] (setting [30]) was 7.43; in [14] (setting [30]), 5.46.

Take ILLKMVTHF: the pKd in assay [3] (setting [30]) is 8.76.

Regarding ILVIFTVAI, the pKd in assay [2] (setting [31]) was 7.82.

Sequence ISYIMLIFF gave a pKd in [11] (source organism: Yellow fever virus) of 5.53.

Regarding ITNELNYVL, the pKd in assay [2] (setting [30]) was 7.13.

Take ITYCLVTHM: in assay [3] (setting [31]), the pKd was 7.60.

For KETACLGKAY, the pKd in assay [1] (source organism: Dengue virus 3 Singapore/8120/1995) is 6.91.

As for KIDNYVVKF, the pKd in assay [2] (setting [31]) was 7.71.

In the case of KSDPIMLLK, the pKd was 7.39 in assay [17]; 6.42 in [18]; 5.09 in assay [19]; 5.82 in assay [20]; 6.46 in [21]; 5.13 in assay [22].

For the sequence KTKLNDWDFV, the pKd in assay [2] (setting [27]) was 4.73.

In the case of LAMNSVFTF, the pKd in [2] (setting [29]) is 7.79.

Regarding LAVSGVYPM, the values for the pKd in assay [12] (setting [28]), in [3] (setting [28]) and in assay [23] (setting [28]) were 7.78, 7.18 and 6.07, respectively.

For the sequence LENENILHG, in [3] (setting [29]), the pKd was 6.51.

As to LGKSEFQIY, the pKd in assay [13] (setting [33]) was at most 4.11.

As for LGSSFCLHA, the pKd in assay [3] (setting [31]) was at most 4.59.

With LLFNSSFCI, the pKd in assay [3] (setting [31]) is 6.98.

Take LSPVRVPNY: the values for the pKd in assay [13] (setting [33]) and in [14] (setting [33]) were 7.30 and 5.27, respectively.

Take LTIESVNAL: the pKd in assay [2] (setting [29]) was 6.77.

Regarding MEAEGVITQ, the pKd in assay [1] (setting [30]) was 5.05.

As to MLHCYESYM, the pKd in assay [3] (setting [31]) is 7.01.

As for MTDEQIYAF, in [2] (setting [31]), the pKd was 7.75.

NEMVLLQMED: the pKd in assay [1] (setting [33]) is 5.22.

Consider NEMVLLTMKE, for which the pKd in [1] (setting [28]) was 5.25.

Regarding PNTNRAWNSL, in [2] (setting [33]), the pKd is 5.81.

Regarding PVPGDWLYF, the negative-log Kd (pKd) in [9] (source organism: Mycobacterium tuberculosis str. Haarlem) was 5.89.

Turning to RFTPVKHEL, in assay [15] (source organism: Vibrio parahaemolyticus), the pKd is 8.30.

RSISRTENF: the pKd in assay [3] (setting [31]) is 8.32.

Regarding RSWPLNEGI, the pKd in assay [2] (setting [30]) was 6.31.

For RYRGEDGCWY, the pKd in assay [13] (setting [33]) is 6.70.

With SPMLYQLLEA, the pKd in assay [24] (setting [31]) was at most 4.16; in assay [12] (setting [31]), 6.84; in assay [23] (setting [31]), 6.64; in [25] (setting [31]), 7.03; in assay [26] (setting [31]) it was 8.06.

In the case of SPMVIATTDM, the pKd was at most 4.28 in assay [24] (setting [31]); 7.18 in assay [12] (setting [31]); 6.13 in [23] (setting [31]); 7.67 in assay [25] (setting [31]); 5.98 in [26] (setting [31]).

As to SPSGVYQCAM, the pKd in assay [24] (setting [34]) was 5.97; in assay [12] (setting [34]), 7.58; in assay [23] (setting [34]), 6.13; in [25] (setting [34]) it was 8.22; in assay [26] (setting [34]) it was 5.55.

With SPYNSQNAVA, the pKd in assay [24] (setting [34]) is 5.46; in [12] (setting [34]) it was 5.08; in assay [23] (setting [34]) it was 4.80; in assay [25] (setting [34]), 7.23; in assay [26] (setting [34]) it was 8.85.

Take STFSISSIF: the pKd in assay [2] (setting [29]) was 8.98.

Regarding TLKGMSYVM, the pKd in assay [3] (source organism: Dengue virus 1 Singapore/S275/1990) was 7.75.

For TLWAIINTI, in assay [2] (setting [31]), the pKd is 8.82.

Take TPNNFSSIV: the pKd was 5.90 in assay [24] (setting [35]); 5.74 in assay [12] (setting [35]); 5.12 in assay [23] (setting [35]); 5.86 in assay [25] (setting [35]); 6.39 in [26] (setting [35]).

Turning to VPDADPPIPY, the pKd in [24] (setting [31]) is at most 4.16; in [12] (setting [31]), 6.85; in [23] (setting [31]), 5.78; in assay [25] (setting [31]) it was 5.69; in assay [26] (setting [31]), 4.71.

VPLVQQQQFL: the pKd in [24] (setting [36]) was 5.23; in [12] (setting [36]), 4.79; in [23] (setting [36]), 5.32; in assay [25] (setting [36]), 5.06; in [26] (setting [36]) it was at most 4.16.

In the case of VPVLEKKVCA, the pKd in [24] (setting [31]) is at most 4.54; in assay [12] (setting [31]) it was 5.11; in assay [23] (setting [31]), at most 4.58; in [25] (setting [31]) it was 5.52; in [26] (setting [31]) it was 6.59.

Turning to VVQPENLEY, the pKd was 5.69 in [13] (setting [37]) and 6.42 in assay [14] (setting [37]).

Take WMINIMIHM: in assay [3] (setting [31]), the pKd was 6.18.

In the case of WNSGHEWVTD, the pKd in assay [2] (setting [33]) is at most 4.21.

For the sequence WPYIASRTSI, the pKd in assay [24] (setting [38]) was 7.34; in assay [12] (setting [38]) it was at most 4.14; in assay [23] (setting [38]) it was at most 4.63; in assay [25] (setting [38]), 7.25; in assay [26] (setting [38]), 6.15.

In the case of YISKVFEHV, the pKd in [3] (setting [31]) is 7.03.

By pKd is commonly meant the negative decadic logarithm of the Kd, by convention in mol/L.
